Legend:
[1] = molecular target: T1, Streptavidin (Pierce, 21125) (UniProt P22629 37-163, limits assumed); assay: phage ELISA
T1 construct: Non-related control antigen; also called SA

[2] = molecular target: T2, Recombinant biotinylated Human CD19 Protein-Fc (Kactus, CD2-HE121) (human, UniProt P15391 20-291, biotinylated); assay: phage ELISA
T2 construct: Control antigen; also called CD19-Fc-Bio; Kactus-CD19-FC-Bio; not shown: Fc tag
T2 sequence (looked up): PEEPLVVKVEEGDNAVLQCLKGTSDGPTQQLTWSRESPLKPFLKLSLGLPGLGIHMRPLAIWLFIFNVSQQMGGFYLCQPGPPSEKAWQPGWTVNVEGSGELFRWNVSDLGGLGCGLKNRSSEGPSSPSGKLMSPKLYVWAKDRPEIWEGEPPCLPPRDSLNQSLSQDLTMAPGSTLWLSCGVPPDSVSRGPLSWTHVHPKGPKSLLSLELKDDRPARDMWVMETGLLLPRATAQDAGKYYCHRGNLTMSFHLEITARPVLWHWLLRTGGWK

[3] = molecular target: T3, Biotinylated Recombinant human BAFFR Protein (Kactus, BAF-HM40RB) (human, UniProt Q96RJ3 7-71, limits assumed, biotinylated); assay: phage ELISA
T3 construct: Non-related control antigen; also called Kactus-BAFFR-his-Bio; not shown: his tag
T3 sequence (looked up): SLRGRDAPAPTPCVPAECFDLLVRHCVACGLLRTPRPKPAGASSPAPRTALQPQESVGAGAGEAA

[4] = molecular target: T4, CD5 antigen (Octet affinity determination, Example 8) (UniProt P06127 25-372, limits assumed); assay: BLI (Octet), IgG loaded on the biosensor, CD5 antigen 400 to 12.5 nM, 1:1 model
T4 sequence (looked up): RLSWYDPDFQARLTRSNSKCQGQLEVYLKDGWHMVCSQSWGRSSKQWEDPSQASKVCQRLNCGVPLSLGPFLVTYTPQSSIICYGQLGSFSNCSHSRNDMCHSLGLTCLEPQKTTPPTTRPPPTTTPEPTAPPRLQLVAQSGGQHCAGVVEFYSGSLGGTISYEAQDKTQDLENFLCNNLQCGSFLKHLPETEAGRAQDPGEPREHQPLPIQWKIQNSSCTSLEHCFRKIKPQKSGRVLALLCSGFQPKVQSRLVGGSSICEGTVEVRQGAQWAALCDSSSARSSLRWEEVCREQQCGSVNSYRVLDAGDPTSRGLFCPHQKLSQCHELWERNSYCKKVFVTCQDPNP

[5] = molecular target: T5, human CD5 on the cell surface (human, UniProt P06127 25-495); assay: phage FACS on CCRF-CEM cells (CD5 positive), anti-M13 + FITC anti-mouse IgG, median of FITC-A
T5 construct: whole, on cells; One molecule for CD5 on all cell lines; also called natural CD5 on the cell membrane; CD5 antigen on Jurkat, CCRF-CEM, MOLT4 cells
T5 sequence (looked up): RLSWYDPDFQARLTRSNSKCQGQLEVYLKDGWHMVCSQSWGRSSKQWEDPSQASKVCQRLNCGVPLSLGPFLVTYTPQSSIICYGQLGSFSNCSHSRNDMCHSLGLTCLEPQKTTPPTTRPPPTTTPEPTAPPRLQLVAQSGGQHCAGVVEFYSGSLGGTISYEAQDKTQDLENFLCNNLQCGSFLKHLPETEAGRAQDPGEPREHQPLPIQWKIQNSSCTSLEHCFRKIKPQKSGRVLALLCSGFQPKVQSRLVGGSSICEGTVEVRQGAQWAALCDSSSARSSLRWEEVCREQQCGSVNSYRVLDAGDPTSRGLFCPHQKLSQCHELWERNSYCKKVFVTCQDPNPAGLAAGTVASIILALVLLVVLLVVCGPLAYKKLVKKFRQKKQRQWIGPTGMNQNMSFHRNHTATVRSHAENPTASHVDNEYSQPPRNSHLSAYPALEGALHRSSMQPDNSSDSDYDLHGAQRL

[6] = molecular target: T5, human CD5 on the cell surface; assay: phage FACS on Jurkat cells (CD5 positive), anti-M13 + FITC anti-mouse IgG, median of FITC-A

T1 sequence (P22629 37-163 limits assumed): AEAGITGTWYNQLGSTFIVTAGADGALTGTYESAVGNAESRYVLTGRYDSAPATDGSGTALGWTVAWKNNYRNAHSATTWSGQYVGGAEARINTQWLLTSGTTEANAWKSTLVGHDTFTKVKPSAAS

| Binder | binding result [1] | binding result [2] | binding result [3] | Kd [4] | koff [4] | kon [4] | Median (B1-A) [5] | Median (B1-A) [6] |
| --- | --- | --- | --- | --- | --- | --- | --- | --- |
| phage monoclone #35 (scFv, also called scFv35) scFv: QSVLTQPPSVSAAPGQKVTISCSGSSSNIGNNYVSWYQQLPGTAPKLLIYDNNKRPSGIPDRFSGSKSGTSATLGITGLQTGDEADYYCGTWDSSLSAVVFGGGTKLTVLGSRGGGGSGGGGSGGGGSLEMAQVQLVESGGGLVQPGGSLRLSCAASGFTFSSYAMSWVRQTPGKGLEWVSTITDSGDITYYTASVQGRFTISRDNSKNTLYLQMNSLRAEDTAVYYCARMSSHWYFSADYWGQGTLVTVSS | no binding | no binding | no binding |  |  |  |  |  |
| Clone 10 anti-CD5 IgG (antibody, V domains shown) VH: EVQLLESGGGLVKPGGSLRLSCAASGFTFNNYTMNWVRQAPGKGLEWVSSISSSSSYIYYADSVKGRFTISRDNAKNSLFLQMNSLRGEDTAVYYCARYFSGSAGDYWGQGTLVTVSS VL: QSVVTQPPSVSGAPGQRVTISCTGSSSNIGAGYDVHWYQQLPGTAPKLLIYGNINRPSGVPDRFSGSKSGTSASLAITGLQAEDEADYYCGTWDNSLSAHYVFGTGTKVTVLG |  |  |  | 4.49 nM | 0.00143 s⁻¹ | 318000 M⁻¹ s⁻¹ |  |  |
| Clone 35 anti-CD5 IgG (antibody, V domains shown, The VH entry as printed begins with MA carried over from the scFv) VH: QVQLVESGGGLVQPGGSLRLSCAASGFTFSSYAMSWVRQTPGKGLEWVSTITDSGDITYYTASVQGRFTISRDNSKNTLYLQMNSLRAEDTAVYYCARMSSHWYFSADYWGQGTLVTVSS VL: QSVLTQPPSVSAAPGQKVTISCSGSSSNIGNNYVSWYQQLPGTAPKLLIYDNNKRPSGIPDRFSGSKSGTSATLGITGLQTGDEADYYCGTWDSSLSAVVFGGGTKLTVLG |  |  |  | 13.6 nM | 0.000382 s⁻¹ | 28100 M⁻¹ s⁻¹ |  |  |
| Clone 32 anti-CD5 IgG (antibody, V domains shown) VH: QVQLVESGGGLVKPGGSLRLSCAASGFTFSSYSMNWVRQAPGKGLEWVSSISSSSSYIYYADSVKGRFTISRDNAKNSLYLQMNSLRAEDTAVYYCARGNPWYGVDYWGQGTLVTVSS VL: QSVLTQPPSVSAAPGQKVTISCSGSNSNIGNNYVSWYQQLPGTAPKRLIYDNNKRPSGIPDRFSGSKSGTSATLGITGLQTGDEADYYCGIWDSSLDAYVFGTGTKVTVLG |  |  |  | 28.3 nM | 0.00217 s⁻¹ | 76500 M⁻¹ s⁻¹ |  |  |
| phage monoclone #9 (scFv, also called scFv9) scFv: QPVLTQPPSVSGSPGQSVTISCTGTSDDIGNYKRVSWYQQPPGTAPKLMIYEVTNRPPGVPNRFSGSKSGNTASLTISGLQAEDEADYYCSSYASGDTYVFGTGTKVTVLGSRGGGGSGGGGSGGGGSLEQVQLVQSGAEVEKPGASVKISCKASTYTFTNYYIHWVRQAPGQGLEWMGMINPSGDTTSYAQKFQGRVTMTRDTSTSTVYMELSSLRSEDTAVYYCARLSWYWGGSFDDWGQGTLVTVSS | no binding | no binding | no binding |  |  |  | 3.37 | 12.8 |
| phage monoclone #32 (scFv, also called scFv32) scFv: QVQLVESGGGLVKPGGSLRLSCAASGFTFSSYSMNWVRQAPGKGLEWVSSISSSSSYIYYADSVKGRFTISRDNAKNSLYLQMNSLRAEDTAVYYCARGNPWYGVDYWGQGTLVTVSSTSGGGGSGGGGSGGGGSELQSVLTQPPSVSAAPGQKVTISCSGSNSNIGNNYVSWYQQLPGTAPKRLIYDNNKRPSGIPDRFSGSKSGTSATLGITGLQTGDEADYYCGIWDSSLDAYVFGTGTKVTVLG | no binding | no binding | no binding |  |  |  |  |  |
| phage monoclone #10 (scFv, also called scFv10) scFv: QSVVTQPPSVSGAPGQRVTISCTGSSSNIGAGYDVHWYQQLPGTAPKLLIYGNINRPSGVPDRFSGSKSGTSASLAITGLQAEDEADYYCGTWDNSLSAHYVFGTGTKVTVLGSRGGGGSGGGGSGGGGSLEEVQLLESGGGLVKPGGSLRLSCAASGFTFNNYTMNWVRQAPGKGLEWVSSISSSSSYIYYADSVKGRFTISRDNAKNSLFLQMNSLRGEDTAVYYCARYFSGSAGDYWGQGTLVTVSS | no binding | no binding | no binding |  |  |  | 17.1 | 31.6 |
| H65 anti-CD5 IgG (antibody, V domains shown) VH: QIQLVQSGPELKKPGETVKISCKASGYTFTNYGMNWVKQAPGKGLRWMGWINTHTGEPTYADDFKGRFAFSLETSASTAYLQINNLKNEDTATYFCTRRGYDWYFDVWGAGTTVTVSS VL: DIKMTQSPSSMYASLGERVTITCKASQDINSYLSWFHHKPGKSPKTLIYRANRLVDGVPSRFSGSGSGQDYSLTISSLDYEDMGIYYCQQYDESPWTFGGGTKLEIK |  |  |  | 2.25 nM | 0.000813 s⁻¹ | 361000 M⁻¹ s⁻¹ |  |  |
| phage monoclone #6 (scFv, also called scFv6) scFv: NFMLTQPHSVSESPGKTVTISCTGNSGSIARNYVQWYQQRPGSAPTMLIYEDNRRPSGVPDRFSGSIDSSSNSASLTISGLKTEDEADYYCQSYDDNTSWVFGGGTKLTVLGSRGGGGSGGGGSGGGGSLEMAEVQLVQSGAEVKKPGSSVKVSCKASGGTFSSNAITWVRQAPGQGLEWMGGIIPMFGTTDYAQKFQGRVTMTADESTSTAYMELRSLRSEDTAVYYCARDGGGRHPYYYYGMDVWGQGTTVTVSS | no binding | no binding | no binding |  |  |  | 1.71 | 71.8 |
| phage monoclone #7 (scFv, also called scFv7) scFv: QSVVTQPPSVSAAPGQKATISCSGSSSNIGNNDVSWYQQLPGTAPKLLIQDNDKRPSGIPDRFSGSKSGTSATLGITGLQTGDEADYYCAVWDSSLSAAVFGPGTKVTVLGSRGGGGSGGGGSGGGGSLEMAEVQLVQSGAEVKKPGESLKISCKGSGYSFTSYWIGWVRQMPGKGLEWMGIIYPDDSDTTYSPSFQGQVTMSVDKSISTAYLQWNSLQASDTAMYYCARMSLTSYLATDGWGQGTLVTVSS | no binding | no binding | no binding |  |  |  | 12.4 | 28.3 |

From US20240002505A1 (NANJING IASO BIOTECHNOLOGY, published 2024)
